Publication PMC7840130 (Science Advances, 2021)
Like-named read-outs stand apart in the source and are kept apart here. Each block holds one molecule with its values, some of them ahead of it.

How the values were obtained:
BcsQ^His (E. coli 1094) = BcsQ^His (E. coli 1094) (UniProt P37655); assay: crystal structure
[1] = biological target: BcsQ (in the Bcs macrocomplex) (E. coli 1094) (UniProt P37655); assay: cryo-EM structure
[2] = biological target: T1, BcsA^HA-FLAG (in the Bcs macrocomplex) (E. coli 1094, UniProt P37653 1-872); assay: cryo-EM structure
T1 sequence (looked up): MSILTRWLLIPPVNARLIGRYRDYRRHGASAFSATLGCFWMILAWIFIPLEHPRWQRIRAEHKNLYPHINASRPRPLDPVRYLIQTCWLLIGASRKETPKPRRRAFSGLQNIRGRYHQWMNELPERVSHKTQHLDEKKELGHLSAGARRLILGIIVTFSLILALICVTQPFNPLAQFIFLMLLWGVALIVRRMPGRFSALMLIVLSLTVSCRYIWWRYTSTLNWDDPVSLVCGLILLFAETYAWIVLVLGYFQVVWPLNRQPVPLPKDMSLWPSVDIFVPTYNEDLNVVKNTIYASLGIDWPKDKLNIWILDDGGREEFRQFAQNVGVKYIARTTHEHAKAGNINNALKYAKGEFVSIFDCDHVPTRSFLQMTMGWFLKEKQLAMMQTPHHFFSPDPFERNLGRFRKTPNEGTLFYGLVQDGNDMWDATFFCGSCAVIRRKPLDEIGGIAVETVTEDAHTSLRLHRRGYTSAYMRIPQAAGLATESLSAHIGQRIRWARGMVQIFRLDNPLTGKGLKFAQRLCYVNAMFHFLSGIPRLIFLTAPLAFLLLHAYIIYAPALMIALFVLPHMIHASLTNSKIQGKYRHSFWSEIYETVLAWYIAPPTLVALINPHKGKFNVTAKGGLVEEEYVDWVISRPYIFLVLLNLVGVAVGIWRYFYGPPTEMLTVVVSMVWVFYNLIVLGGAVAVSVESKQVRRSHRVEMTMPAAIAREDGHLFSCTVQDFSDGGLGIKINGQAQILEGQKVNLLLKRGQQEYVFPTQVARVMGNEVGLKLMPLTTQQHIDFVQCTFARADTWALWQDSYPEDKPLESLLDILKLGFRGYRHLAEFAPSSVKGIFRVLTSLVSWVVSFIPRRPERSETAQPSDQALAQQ

cryo-EM structure [3] = biological target: the molecule itself; assay: cryo-EM structure
cryo-EM structure [4] = biological target: the molecule itself; assay: cryo-EM structure; remark: listed apart in the source

stoichiometry N (BcsQ^His (E. coli 1094)): 2
Molecule: BcsQ^His (from UniProt P37655 1-242) (natural protein)

stoichiometry N [1]: 2
Molecule: BcsQ (in the Bcs macrocomplex) (from UniProt P37655 1-242) (natural protein)

binding result [2]: binds
B1: BcsB (in the Bcs macrocomplex) (natural protein, E. coli 1094, UniProt P37652 26-779, looked up)
chain: TPATQPLINAEPAVAAQTEQNPQVGQVMPGVQGADAPVVAQNGPSRDVKLTFAQIAPPPGSMVLRGINPNGSIEFGMRSDEVVTKAMLNLEYTPSPSLLPVQSQLKVYLNDELMGVLPVTKEQLGKKTLAQMPINPLFISDFNRVRLEFVGHYQDVCEKPASTTLWLDVGRSSGLDLTYQTLNVKNDLSHFPVPFFDPSDNRTNTLPMVFAGAPDVGLQQASAIVASWFGSRSGWRGQNFPVLYNQLPDRNAIVFATNDKRPDFLRDHPAVKAPVIEMINHPQNPYVKLLVVFGRDDKDLLQAAKGIAQGNILFRGESVVVNEVKPLLPRKPYDAPNWVRTDRPVTFGELKTYEEQLQSSGLEPAAINVSLNLPPDLYLMRSTGIDMDINYRYTMPPVKDSSRMDISLNNQFLQSFNLSSKQEANRLLLRIPVLQGLLDGKTDVSIPALKLGATNQLRFDFEYMNPMPGGSVDNCITFQPVQNHVVIGDDSTIDFSKYYHFIPMPDLRAFANAGFPFSRMADLSQTITVMPKAPNEAQMETLLNTVGFIGAQTGFPAINLTVTDDGSTIQGKDADIMIIGGIPDKLKDDKQIDLLVQATESWVKTPMRQTPFPGIVPDESDRAAETRSTLTSSGAMAAVIGFQSPYNDQRSVIALLADSPRGYEMLNDAVNDSGKRATMFGSVAVIRESGINSLRVGDVYYVGHLPWFERVWYALANHPILLAVLAAISVILLAWVLWRLLRIISRRRLNPDNE
stoichiometry N (cryo-EM structure [3]): ≤ 6

B2: full-length E. coli BcsB^His (natural protein, E. coli 1094, UniProt P37652 26-779, looked up)
chain: B1 chain
stoichiometry N (cryo-EM structure [4]): 8
